In publication PMC4790104 (Analytical chemistry, 2016):

T1: Ski2 (S. cerevisiae (endogenous in budding …, UniProt P35207 1-1287))
T1 sequence (looked up): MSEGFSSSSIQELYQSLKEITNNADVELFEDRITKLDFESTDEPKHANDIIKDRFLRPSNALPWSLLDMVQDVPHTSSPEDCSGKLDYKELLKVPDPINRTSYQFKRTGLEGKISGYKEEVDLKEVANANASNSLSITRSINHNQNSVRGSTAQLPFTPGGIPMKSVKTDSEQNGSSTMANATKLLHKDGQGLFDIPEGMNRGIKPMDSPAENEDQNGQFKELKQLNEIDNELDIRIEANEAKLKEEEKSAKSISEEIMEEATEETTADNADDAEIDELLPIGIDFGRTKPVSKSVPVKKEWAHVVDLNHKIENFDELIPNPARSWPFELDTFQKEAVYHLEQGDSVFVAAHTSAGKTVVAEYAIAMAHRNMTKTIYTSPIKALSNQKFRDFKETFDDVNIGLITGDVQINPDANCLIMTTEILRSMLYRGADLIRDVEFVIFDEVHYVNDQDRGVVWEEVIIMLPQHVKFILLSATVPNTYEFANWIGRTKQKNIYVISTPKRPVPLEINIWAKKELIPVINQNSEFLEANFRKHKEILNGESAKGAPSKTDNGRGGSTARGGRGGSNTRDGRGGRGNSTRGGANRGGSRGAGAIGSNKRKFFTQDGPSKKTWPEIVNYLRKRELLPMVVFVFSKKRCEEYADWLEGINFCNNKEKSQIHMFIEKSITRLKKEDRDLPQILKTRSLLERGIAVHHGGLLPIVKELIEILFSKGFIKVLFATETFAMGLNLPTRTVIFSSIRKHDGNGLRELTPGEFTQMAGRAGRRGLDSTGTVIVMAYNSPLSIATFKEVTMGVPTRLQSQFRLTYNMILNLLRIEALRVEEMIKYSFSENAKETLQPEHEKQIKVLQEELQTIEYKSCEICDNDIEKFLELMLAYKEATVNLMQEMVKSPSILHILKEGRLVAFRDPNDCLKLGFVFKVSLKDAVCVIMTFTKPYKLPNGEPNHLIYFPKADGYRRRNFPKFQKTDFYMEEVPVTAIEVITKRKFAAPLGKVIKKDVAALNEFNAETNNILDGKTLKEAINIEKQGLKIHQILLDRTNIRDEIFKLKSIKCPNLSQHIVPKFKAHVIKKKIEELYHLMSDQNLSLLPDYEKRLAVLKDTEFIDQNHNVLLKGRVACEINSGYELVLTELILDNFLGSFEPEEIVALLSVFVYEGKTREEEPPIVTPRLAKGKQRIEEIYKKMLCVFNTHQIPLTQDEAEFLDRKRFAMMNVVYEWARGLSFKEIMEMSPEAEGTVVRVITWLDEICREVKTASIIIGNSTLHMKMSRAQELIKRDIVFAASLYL

B1: Ctf4 (natural protein, UniProt Q01454 1-927, looked up)
chain: MVSVIDKLVFDFGGKTLVSLAPDNNTLCVANKNGLTKILKTNNPEEEPETLDSSKLVSSIKCYSNSHFLMTTMQGDALRYNIDSSQEELLARFALPLRDCCVIHSGKMAVFGGDDLELILLELDDETHKKHAIKIDEQVSQISYNSQMNILAVSMINGKVQIFSLTSTIPNKVHELNDYIVANSYDDTHRDKILSNMMDDIDKDNDNDLSETADPDENNVADPEFCAANRICTRVAWHPKGLHFALPCADDTVKIFSIKGYSLQKTLSTNLSSTKAHFIDLQFDPLRGTYIAAVDLNNKLTVWNWETSEIHYTREFKRKITNIAWKIQADSKTLDLVLGTWSGSIAIVQNLAESVVSNIPDQSVAESSTKHGLFVDSESDLENLEGNDDINKSDKLFSDITQEANAEDVFTQTHDGPSGLSEKRKYNFEDEEDFIDDDDGAGYISGKKPHNEHSYSRVHKTHSFPISLANTGKFRYMPFSPAGTPFGFTDRRYLTMNEVGYVSTVKNSEQYSITVSFFDVGRFREYHFEDLFGYDLCFLNEKGTLFGQSKTGQIQYRPHDSIHSNWTKIIPLQAGERITSVAATPVRVIVGTSLGYFRSFNQFGVPFAVEKTSPIVALTAQNYRVFSVHYSQFHGLSYSLSELGTSSKRYYKRECPLPMSLPNINSDMKKDANLDYYNFNPMGIKSLFFSSYGDPCIFGSDNTLLLLSKWRSPEESKWLPILDSNMEIWKMSGGKETTDIHVWPLALAYDTLNCILVKGKHIWPEFPLPLPSEMEIRMPVFVKSKLLEENKAILNKKNEIGADTEAEEGEEDKEIQIPVSMAAEEEYLRSKVLSELLTDTLENDGEMYGNENEVLAALNGAYDKALLRLFASACSDQNVEKALSLAHELKQDRALTAAVKISERAELPSLVKKINNIREARYEQQLK
B2: Ski8 (natural protein, UniProt Q02793 1-397, looked up)
chain: MSKVFIATANAGKAHDADIFSVSACNSFTVSCSGDGYLKVWDNKLLDNENPKDKSYSHFVHKSGLHHVDVLQAIERDAFELCLVATTSFSGDLLFYRITREDETKKVIFEKLDLLDSDMKKHSFWALKWGASNDRLLSHRLVATDVKGTTYIWKFHPFADESNSLTLNWSPTLELQGTVESPMTPSQFATSVDISERGLIATGFNNGTVQISELSTLRPLYNFESQHSMINNSNSIRSVKFSPQGSLLAIAHDSNSFGCITLYETEFGERIGSLSVPTHSSQASLGEFAHSSWVMSLSFNDSGETLCSAGWDGKLRFWDVKTKERITTLNMHCDDIEIEEDILAVDEHGDSLAEPGVFDVKFLKKGWRSGMGADLNESLCCVCLDRSIRWFREAGGK
B3: Ski3 (natural protein, UniProt P17883 1-1432, looked up)
chain: MSDIKQLLKEAKQELTNRDYEETIEISEKVLKLDPDNYFAHIFLGKALSSLPASNNVSSNRNLERATNHYVSAAKLVPDNLLAWKGLFLLFRTTEVVPDILSYDEYFDLCGQYADALLKQEQSQVELINDIKLLKKTHPDCQKAFYQHLKPGSLMAETIGRHLSTPQDALLNLIKILSNIETTEIGKTLSQNRLKLKASDPDYQIKLNSFSWEIIKNSEIDQLYNQLVNILADDQKRSEIENQWLEYRIKVLKSMPLDVKKDFFTKVKEMVEDMVLVNHQSLLAWQKYFEWTDYEDLDNMDAPLIIKYFKKFPKDPLAMILYSWLSSKLSKYDIKSLESANKPPEGHKKTEKETDIKDVDETNEDEVKDRVEDEVKDRVEDEVKDQDEEAKEDEEEDLDDIEIGLLEEEVVTVLTENIVKCKNNILAHRILCQYYLLTKEYEAALPYIKNGISLIAYNIKDLGVHLPLTKREFSLDLATVYTYVDAPKDHNAALKLYDNILSGDFSNIQAKMGKGIIFIERKNWKDAMTLLTQVHEQSPNNLEVLSELSWSKAHMGYMDEALAGLDTVIKGIKGMDLRSIDFRALNLWRQAKVYIMKHASINDAKQENVKCAFKLLIQSIKILDTFAPGFSTLGDIYCHYYKDHLRAFKCYFKAFDLDAGDYTAAKYITETYASKPNWQAASSIASRLIKGEKAKAELRSNNWPFRVVGIAHLEKQEESDSIEWFQSALRVDPNDVESWVGLGQAYHACGRIEASIKVFDKAIQLRPSHTFAQYFKAISLCDVGEYLESLDILEKVCQEAATEESFQIGLVEVLMRCSLDLYSQGFLLKSVSIAKDTIERIKIIISELKCENQQVWIYLSQVLRLFIWIESKVDTLPVESLVSIFENSQFSGSEEIDSVDNIKIDTLLDSTTDDNVSIACKFLILASKYSVSDQKFTDIAGTVRASYWYNIGISELTAFITLKEPQYRDAAIFAFKKSIQLQSNTSETWIGLGIATMDINFRVSQHCFIKATALEPKATNTWFNLAMLGLKKKDTEFAQQVLNKLQSLAPQDSSPWLGMALILEEQGDIIGSSKLFAHSFILSNGRSKAAQFMYAKNVLENHINNGDDERDIETVEKLTTASIALEQFFKKSPDSQFALQCALLTLERLHHYENANELANRLIGILEKKFEKTQDERELFNFAIIKGQFARIHLGLGNFELSIENADLSQGIISESSDEKSMKTKISNHICLGLSYFFLNDFDQTLNQFQELLSISKDSKHLVVLIAKVLYDVGESDTKEIALQELTEYIATSGADLLVTLTIAAMSILDDKREDLSIILEELKALPLSKQIIDKHKDAPYLIEEITKRLYRNDTGKQVWQRSAYFFPNNLKVWERLDKNIQRRIASNGQNKVTAEEMSKLYCESKNLRSIQRGMFLCPWNVTAVKALNECF

Key:
Assay in all cases: native MS
native MS = target: the molecule itself
Ski2 = target: T1, Ski2
Ski3 = target: B3

stoichiometry N (Ski2) | stoichiometry N (Ski3) | Binder | stoichiometry N (native MS)
 |  | B1 | 3
2 | 2 | B2 | 
1 |  | B3 | 
